Laboratory results published in patent publication US20240239891A1 (Stanford University, published 2024).
Each block holds one binder with its values, some of them ahead of it.

Columns and labels:
[1] = biological target: T1, extracellular domain (ECD) of human GOLIATH (RNF130) (human, UniProt Q86XS8 28-194); experiment: SPR (Biacore), titration at equilibrium, nanobody on ECD
T1 construct: extracellular domain; also called GOLIATH ECD
T1 sequence (looked up): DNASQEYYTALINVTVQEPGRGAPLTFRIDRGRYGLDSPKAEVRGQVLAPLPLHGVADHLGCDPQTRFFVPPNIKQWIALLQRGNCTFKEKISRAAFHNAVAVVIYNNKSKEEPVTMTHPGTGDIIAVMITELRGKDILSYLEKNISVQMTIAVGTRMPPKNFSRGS

[2] = biological target: T2, extracellular domain (ECD) of human GRAIL (RNF128) (human, UniProt Q8TEB7 39-207, limits assumed); experiment: SPR (Biacore), titrations at equilibrium, Biacore Analysis Software; row GOLIATH-A1, column GRAIL (hRNF128)
T2 construct: extracellular domain; also called GRAIL ECD
T2 sequence (looked up): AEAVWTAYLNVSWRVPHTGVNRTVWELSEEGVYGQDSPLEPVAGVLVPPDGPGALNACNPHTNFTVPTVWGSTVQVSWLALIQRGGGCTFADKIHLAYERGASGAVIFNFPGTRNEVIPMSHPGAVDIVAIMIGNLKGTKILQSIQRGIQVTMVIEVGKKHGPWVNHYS

[3] = biological target: T3, extracellular domain (ECD) of human GODZILLA (RNF167) (human, UniProt Q9H6Y7 25-173, limits assumed); experiment: SPR (Biacore), titrations at equilibrium, Biacore Analysis Software; row GOLIATH-A1, column GODZILLA (hRNF167)
T3 construct: extracellular domain; also called GODZILLA ECD

[4] = biological target: T3, extracellular domain (ECD) of human …; experiment: SPR (Biacore), ligand hRNF167 ECD (GODZILLA), analyte GOLIATH-F8 [CONT. 3]
[5] = biological target: T2, extracellular domain (ECD) of human …; experiment: SPR (Biacore), titrations at equilibrium, Biacore Analysis Software; column ECD GRAIL (hRNF128)
[6] = biological target: T3, extracellular domain (ECD) of human …; experiment: SPR (Biacore), titrations at equilibrium, Biacore Analysis Software; row GOLIATH-D1, column GODZILLA (hRNF167)
[7] = biological target: T2, extracellular domain (ECD) of human …; experiment: SPR (Biacore), ligand hRNF128 ECD (GRAIL), analyte GOLIATH-F2 [CONT. 2]
[8] = biological target: T3, extracellular domain (ECD) of human …; experiment: SPR (Biacore), ligand hRNF167 ECD (GODZILLA), analyte GOLIATH-F2 [CONT. 2]
[9] = biological target: T2, extracellular domain (ECD) of human …; experiment: SPR (Biacore), titration at equilibrium, nanobody on ECD
[10] = biological target: T1, extracellular domain (ECD) of human …; experiment: SPR (Biacore), ligand hRNF130 ECD (GOLIATH), analyte GRAIL-D1
[11] = biological target: T3, extracellular domain (ECD) of human …; experiment: SPR (Biacore), titrations at equilibrium, Biacore Analysis Software; row GRAIL-D1, column GODZILLA (hRNF167)
[12] = biological target: T4, extracellular domain (ECD) of human or mouse ZNRF3 (human or mouse); experiment: SPR (Biacore), nanobody on ECD
T4 construct: extracellular domain; also called ZNRF3 ECD

[13] = biological target: T1, extracellular domain (ECD) of human …; experiment: SPR (Biacore), titrations at equilibrium, Biacore Analysis Software; row GRAIL-E1, column GOLIATH (hRNF130)
[14] = biological target: T3, extracellular domain (ECD) of human …; experiment: SPR (Biacore), titrations at equilibrium, Biacore Analysis Software; row GRAIL-E1, column GODZILLA (hRNF167)
[15] = biological target: T5, hZNRF3 ECD; experiment: SPR (Biacore), ligand hZNRF3 ECD, nanobody as analyte
T5 construct: The human half of m19, which leaves the species open; also called extracellular domain of human ZNRF3
T5 chain: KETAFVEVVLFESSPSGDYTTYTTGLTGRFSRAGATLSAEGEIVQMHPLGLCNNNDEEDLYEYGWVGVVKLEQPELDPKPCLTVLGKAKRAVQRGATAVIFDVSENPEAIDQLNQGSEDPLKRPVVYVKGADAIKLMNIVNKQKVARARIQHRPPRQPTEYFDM

[16] = biological target: T6, mZNRF3 ECD; experiment: SPR (Biacore), ligand mZNRF3 ECD, nanobody as analyte
T6 construct: The mouse half of m19, which leaves the species open; also called extracellular domain of mouse ZNRF3
T6 chain: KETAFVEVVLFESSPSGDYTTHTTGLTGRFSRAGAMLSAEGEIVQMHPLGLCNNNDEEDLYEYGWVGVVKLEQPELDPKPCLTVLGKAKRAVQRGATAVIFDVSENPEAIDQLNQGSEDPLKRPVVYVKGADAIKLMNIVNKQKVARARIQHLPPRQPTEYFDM

[17] = biological target: T7, extracellular domain (ECD) of human or mouse RNF43 (human or mouse); experiment: SPR (Biacore), nanobody on ECD
T7 construct: extracellular domain; also called RNF43 ECD

[18] = biological target: T8, hRNF43 ECD; experiment: SPR (Biacore), ligand hRNF43 ECD, nanobody as analyte
T8 construct: The human half of m18, which leaves the species open; also called extracellular domain of human RNF43
T8 chain: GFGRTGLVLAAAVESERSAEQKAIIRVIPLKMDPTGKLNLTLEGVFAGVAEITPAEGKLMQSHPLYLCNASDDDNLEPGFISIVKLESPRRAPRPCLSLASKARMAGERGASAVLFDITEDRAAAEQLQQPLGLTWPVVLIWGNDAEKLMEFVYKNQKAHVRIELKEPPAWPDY

[19] = biological target: T9, mRNF43 ECD; experiment: SPR (Biacore), ligand mRNF43 ECD, nanobody as analyte
T9 construct: The mouse half of m18, which leaves the species open; also called extracellular domain of mouse RNF43
T9 chain: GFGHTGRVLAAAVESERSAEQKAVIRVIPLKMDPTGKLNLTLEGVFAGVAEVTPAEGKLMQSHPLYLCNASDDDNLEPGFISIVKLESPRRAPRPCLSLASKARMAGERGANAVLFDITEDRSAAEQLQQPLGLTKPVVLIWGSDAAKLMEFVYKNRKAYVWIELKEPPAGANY

[20] = biological target: T1, extracellular domain (ECD) of human …; experiment: SPR (Biacore), titrations at equilibrium, Biacore Analysis Software; row GRAIL-E2, column GOLIATH (hRNF130)
[21] = biological target: T3, extracellular domain (ECD) of human …; experiment: SPR (Biacore), titrations at equilibrium, Biacore Analysis Software; row GRAIL-E2, column GODZILLA (hRNF167)

Kd [1]: 8.18 nM
binding result [2]: no binding
binding result [3]: no binding
B1: GOLIATH (RNF130) VHH of SEQ ID NO: 5 (VHH)
VHH: QVQLQESGGGLVQAGGSLRLSCAASGYISGYYVMGWYRQAPGKEREFVASISYGASTYYADSVKGRFTISRDNAKNTVYLQMNSLKPEDTAVYYCAVDFDSNYAHTYWGQGTQVTVSS
notes: also called A1; GOLIATH-A1

Kd [1]: 130 nM
Kd [5]: 70.2 nM
B2: GOLIATH (RNF130) VHH of SEQ ID NO: 8 (VHH)
VHH: QVQLQESGGGLVQAGGSLRLSCAASGTISFIGYMGWYRQAPGKERELVASIASGTSTYYADSVKGRFTISRDNAKNTVYLQMNSLKPEDTAVYYCAATQYIQDAHRYWGQGTQVTVSS
notes: also called GOLIATH nanobody
binding result [4]: no binding (tested: 2000 (unit not printed))

Kd [1]: 6.38 nM
binding result [6]: no binding
B3: GOLIATH (RNF130) VHH of SEQ ID NO: 6 (VHH)
VHH: QVQLQESGGGLVQAGGSLRLSCAASGTISFIGYMGWYRQAPGKERELVASIASGTSTYYADSVKGRFTISRDNAKNTVYLQMNSLKPEDTAVYYCAATQYIQDVHRYWGQGTQVTVSS
notes: also called D1; GOLIATH-D1

B4: GOLIATH (RNF130) VHH of SEQ ID NO: 7 (VHH)
VHH: QVQLQESGGGLVQAGGSLRLSCAASGTISVIGYMGWYRQAPGKERELVASIASGTSTYYADSVKGRFTISRDNAKNTVYLQMNSLKPEDTAVYYCAATHYIQDAHRYWGQGTQVTVSS
notes: also called GOLIATH nanobody
binding result [7]: no binding (tested: 4000 (unit not printed))
binding result [8]: no binding (tested: 4000 (unit not printed))

Kd [9]: 8.99 nM
binding result [11]: no binding
B5: GRAIL (RNF128) VHH of SEQ ID NO: 1 (VHH)
VHH: QVQLQESGGGLVQAGGSLRLSCAASGYIFYGVHMGWYRQAPGKEREFVAAIDLGTTTYYADSVKGRFTISRDNAKNTVYLQMNSLKPEDTAVYYCAVYFDGLTNLPYWGQGTQVTVSS
notes: Purified nanobody; also called GRAIL nanobody
binding result [10]: no binding (tested: 500 (unit not printed))

Kd [12]: 18.1 nM
B6: ZNRF3 VHH of SEQ ID NO: 13 (VHH)
VHH: QVQLQESGGGLVQAGGSLRLSCAASGTIFYTLFMGWYRQAPGKEREFVAGIGRGGITYYADSVKGRFTISRDNAKNTVYLQMNSLKPEDTAVYYCAVWYDFLHSDSQAYSYWGQGTQVTVSS
notes: also called ZNRF3 nanobody

Kd [9]: 7.92 nM
binding result [13]: no binding
binding result [14]: no binding
B7: GRAIL (RNF128) VHH of SEQ ID NO: 2 (VHH)
VHH: QVQLQESGGGLVQAGGSLRLSCAASGNISVQLDMGWYRQAPGKEREFVAAINQGTTTYYADSVKGRFTISRDNAKNTVYLQMNSLKPEDTAVYYCAVYLYDIWNHPYWGQGTQVTVSS
notes: also called E1; GRAIL-E1

Kd [12]: 0.7 nM
binding result [15]: binds
binding result [16]: binds
B8: ZNRF3 VHH of SEQ ID NO: 14 (VHH)
VHH: QVQLQESGGGLVQAGGSLRLSCAASGTISYAHIMGWYRQAPGKERELVAGISQGSITNYADSVKGRFTISRDNAKNTVYLQMNSLKPEDTAVYYCAVISYDYIKSVPFRYWGQGTQVTVSS
notes: also called ZNRF3 nanobody

Kd [17]: 163 nM
binding result [18]: binds
binding result [19]: binds
B9: RNF43 VHH of SEQ ID NO: 11 (VHH)
VHH: QVQLQESGGGLVQAGGSLRLSCAASGTIFGLSDMGWYRQAPGKEREFVAAIAGGTITYYADSVKGRFTISRDNAKNTVYLQMNSLKPEDTAVYYCAAYKYDERYHSYWGQGTQVTVSS
notes: also called RNF43 nanobody

Kd [17]: 41.5 nM
B10: RNF43 VHH of SEQ ID NO: 12 (VHH)
VHH: QVQLQESGGGLVQAGGSLRLSCAASGSIFWKPVMGWYRQAPGKEREFVAAITSGTNTYYADSVKGRFTISRDNAKNTVYLQMNSLKPEDTAVYYCAVDDYDVVEYPYWGQGTQVTVSS
notes: also called RNF43 nanobody

Kd [9]: 148 nM
B11: GRAIL (RNF128) VHH of SEQ ID NO: 4 (VHH)
VHH: QVQLQESGGGLVQAGGSLRLSCAASGTISYYYAMGWYRQAPGKEREFVAAIDLGTSTYYADSVKGRFTISRDNAKNTVYLQMNSLKPEDTAVYYCAAWSDYVTELPYWGQGTQVTVSS
notes: also called GRAIL nanobody

Kd [9]: 13.5 nM
binding result [20]: no binding
binding result [21]: no binding
B12: GRAIL (RNF128) VHH of SEQ ID NO: 3 (VHH)
VHH: QVQLQESGGGLVQAGGSLRLSCAASGSISGGKGMGWYRQAPGKEREFVAAIGSGAITYYADSVKGRFTISRDNAKNTVYLQMNSLKPEDTAVYYCAVYTTALDEYPYWGQGTQVTVSS
notes: also called E2; GRAIL-E2
